From US20190194322A1 (BIO TECHNE, published 2019)

T1: VSIG8 ectodomain coupled to pentamerizing rat COMP helix and alkaline phosphatase (AVEXIS prey) (rat, UniProt P0DPA2 22-263; P35444 28-72)
T1 construct: not shown: alkaline phosphatase enzyme
T1 sequence (looked up): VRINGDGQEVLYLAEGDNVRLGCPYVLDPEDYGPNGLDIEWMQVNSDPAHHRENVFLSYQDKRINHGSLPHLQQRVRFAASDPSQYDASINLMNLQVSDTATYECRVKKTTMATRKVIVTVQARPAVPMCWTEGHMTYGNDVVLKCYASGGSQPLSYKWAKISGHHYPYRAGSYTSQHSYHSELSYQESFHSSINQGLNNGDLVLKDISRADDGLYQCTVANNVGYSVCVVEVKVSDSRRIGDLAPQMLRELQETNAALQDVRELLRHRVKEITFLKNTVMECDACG

T2: VSIG3 ectodomain coupled to pentamerizing rat COMP helix and alkaline phosphatase (AVEXIS prey) (rat, UniProt Q5DX21 23-241; P35444 28-72)
T2 construct: used as conditioned medium; also called VSIG3 oligomer as prey; penta-VSIG3; not shown: alkaline phosphatase enzyme
T2 sequence (looked up): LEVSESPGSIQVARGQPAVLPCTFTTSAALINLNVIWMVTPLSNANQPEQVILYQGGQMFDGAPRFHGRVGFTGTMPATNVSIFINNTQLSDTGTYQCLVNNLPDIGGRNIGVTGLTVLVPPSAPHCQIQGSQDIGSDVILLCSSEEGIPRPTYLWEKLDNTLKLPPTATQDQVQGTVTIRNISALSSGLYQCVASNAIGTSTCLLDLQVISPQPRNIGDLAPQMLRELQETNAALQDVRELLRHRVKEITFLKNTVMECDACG

B1: mouse anti-human VSIG3 monoclonal antibody from clone #973428 (antibody, IgG1, V domains shown)
VH: EVQLVESGGDLVKPGGSLKLSCAASGFTFNSYGMSWVRQTPDKRLEWVAIISSGGSYTYYPDSVKGRFTISRDNAKNTLYLQMSSLKSEDTAMYYCARLSYYYGSSPYAMDYWGQGTSVTISS
VL: DIVLTQSPASLAVSLGQRATISCRASKSVSTSGYSYMHWYQQKPGQSPKLLIYLASNLESGVPARCSGSGSGTDFTLNIHPVEEEDAATYYCQHSRELPYTFGGGTKLEIKR
notes: also called fusion 9734 clone 28
B2: Recombinant human VSIG3 Fc Chimera (Fc fusion)
chain: LEVSESPGSIQVARGQTAVLPCTFTTSAALINLNVIWMVTPLSNANQPEQVILYQGGQMFDGAPRFHGRVGFTGTMPATNVSIFINNTQLSDTGTYQCLVNNLPDIGGRNIGVTGLTVLVPPSAPHCQIQGSQDIGSDVILLCSSEEGIPRPTYLWEKLDNTLKLPPTATQDQVQGTVTIRNISALSSGLYQCVASNAIGTSTCLLDLQVISPQPRNIGLIAGIEGRMDPKSCDKTHTCPPCPAPEAEGAPSVFLFPPKPKDTLMISRTPEVTCVVVDVSHEDPEVKFNWYVDGVEVHNAKTKPREEQYNSTYRVVSVLTVLHQDWLNGKEYKCKVSNKALPAPIEKTISKAKGQPREPQVYTLPPSRDELTKNQVSLTCLVKGFYPSDIAVEWESNGQPENNYKATPPVLDSDGSFFLYSKLTVDKSRWQQGNVFSCSVMHEALHNHYTQKSLSLSPGK
notes: also called rhVSIG3; rhVSIG-3
B3: VSIG8 Fc-fusion (AVEXIS bait) (Fc fusion, UniProt P0DPA2 22-263, looked up)
chain: VRINGDGQEVLYLAEGDNVRLGCPYVLDPEDYGPNGLDIEWMQVNSDPAHHRENVFLSYQDKRINHGSLPHLQQRVRFAASDPSQYDASINLMNLQVSDTATYECRVKKTTMATRKVIVTVQARPAVPMCWTEGHMTYGNDVVLKCYASGGSQPLSYKWAKISGHHYPYRAGSYTSQHSYHSELSYQESFHSSINQGLNNGDLVLKDISRADDGLYQCTVANNVGYSVCVVEVKVSDSRRIG
notes: extracellular domain; not shown: Fc
B4: mouse anti-human VSIG3 monoclonal antibody from clone #973401 (antibody, IgG1, V domains shown)
VH: QVQLQQSAAELARPGASVKMSCKASGYTFATYTIHWVKQRPGQGLEWIGYINPSSGYTEYNQKFKDKTTLTADKSSSTAYMQLSSLTSEDSAVYYCARREVYGSGSMDYWGQGTSVTVSS
VL: QIVLTQSPALMSASPGEKVTMTCSASSSVSFMYWYHQKPRSSPKPWIYLTSNLASGVPARFSGSGSGTSYSLTISSMEAEDAATYYCQQWSSNPLTFGAGTKLELKR
notes: also called fusion 9734 clone 1

Legend:
[1] = molecular target: B2; assay: SPR (Biacore), VSIG3-Fc immobilised, antibody as analyte (FIG. 14)
Method: The affinity of these blocking antibodies to purified recombinant VSIG3 was measured by surface plasmon resonance (SPR) using a Biacore T200 in two assay orientations. […] Dilutions of antibody were then flowed over the surface and the double reference subtracted data fit to a 1:1 Langmuir binding model with Biacore T200 Evaluation Software version 3.1 (FIG. 14). In a separate assay, a fusion protein containing protein A/G/L (Novus Biologicals, Littleton, Colo.) was covalently immobilized to the surface of a CM5 chip by standard amine coupling chemistry. Antibody was captured, followed by dilutions of VSIG3 His-fusion. Double reference subtracted data were fit to a 1:1 Langmuir binding model as described above (FIG. 15).

[2] = molecular target: T3, PD1 ectodomain coupled to pentamerizing rat COMP helix and alkaline phosphatase (AVEXIS prey) (rat, UniProt Q15116 25-170; P35444 28-72); assay: AVEXIS, VSIG3 Fc-fusion bait, PD1-COMP-AP prey (FIG. 12B)
T3 construct: not shown: alkaline phosphatase enzyme
Text: (§1) FIG. 12B AVEXIS was used to screen interactions between VISTA and VSIG3, VSIG8, and PD1, and results were quantified by measuring absorbance at 650 nm using the alkaline phosphatase reagent BluePhos. […] FIG. 12C.
(§2) The ectodomains of VSIG3, VISTA, and other immunoregulatory receptors were cloned into a construct containing the rat cartilage oligomeric matrix protein (COMP), which forms a covalent, pentameric coiled-coil helix oligomer (Malashkevich et al. Science. 274 (1996) 761-5), followed by an alkaline phosphatase enzyme for detection. […] Conditioned media containing the oligomeric prey protein fused to the COMP helical oligomer and alkaline phosphatase was incubated and washed, and the interaction was quantitatively measured by detection of alkaline phosphatase activity using the BLUEPHOS reagent (KPL/Sera Care, Milford, Mass.).

[3] = molecular target: T4, Recombinant human VISTA Fc Chimera (human (homo sapiens)); assay: ELISA, rhVISTA coated at 2 µg/mL, biotin-labelled rhVSIG3 titrated, streptavidin-HRP (FIG. 1A)
T4 construct: also called rhVISTA; VISTA-Fc bait
Text: The non-specific binding is subtracted and in all cases was less than 5% of the total signal.

[4] = molecular target: T1, VSIG8 ectodomain coupled to …; assay: AVEXIS, VSIG3 Fc-fusion bait, VSIG8-COMP-AP prey (FIG. 12B)
Text: as §1, §2

[5] = molecular target: T2, VSIG3 ectodomain coupled to …; assay: AVEXIS, VSIG8 Fc-fusion bait, VSIG3-COMP-AP prey (FIG. 12B)
Text: as §1, §2

B1
binding result [1]: binds

B2
binding result [2]: no binding
EC50 [3]: ~0.25 µg/mL
binding result [4]: no binding

B3
binding result [5]: no binding

B4
binding result [1]: binds
